Test results: a protein production outcome set (Wang et al. 2014)
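Note: failed if final PepcDB status was selected cloned or expressed and not failed if soluble or beyond.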

Test: label from the status in PepcDB records
For “MQPISILFLGIDDNDGRRKKGQDAEHSRSDAMILTTFNQSKHQIRMLSIPRDTISYIPKVGYYDKITHAHAYGGPIAAMDSVEATMNVPVDYYVRVNMKAFVEAVNELGGIYYDVPYDLNEPNTDDTGKIKIKKGYQKLNGDEALAVARTRHHDSDLKRGQRQMELIKILFQKAQEVDSIDKLDNVIQIVGKNAKHNLTNSEIKALAKMYLTNDVEIKTAQLKGKDDMLNGIYYYHPSVESIQKYANLLRKDLELSPINDKNDFLDQRVINHYGSLIPLTPLDSSLLRLEHHHHHH”, the protein production was “not failed”. With “MQPTGNQIQQNQQQQQQLIMRVPKQEVSVSGAARRYVQQAPPNRPPRQNHQNGAIGGKKSSVTIQEVPNNAYLETLNKSGNNKVDDDKLPVFLIKLWNIVEDPNLQSIVHWDDSGASFHISDPYLFGRNVLPHFFKHNNMNSMVRQLNMYGFRKMTPLSQGGLTRTESDQDHLEFSHPCFVQGRPELLSQIKRK” the protein production was “not failed”. With “MQPTGNQIQQNQQQQQQLIMRVPKQEVSVSGAARRYVQQAPPNRPPRQNHQNGAIGGKKSSVTIQEVPNNAYLETLNKSGNNKVDDDKLPVFLIKLWNIVEDPNLQSIVHWDDSGASFHISDPYLFGRNVLPHFFKHNNMNSMVRQLNMYGFRKMTPLSQGGLTRTESDQDHLEFSHPCFVQGRPELLSQIKRKQSARTVEDKQVNEQTQQNLEVVMAEMRAMREKAKNMEDKMNKLTKENRDMWTQMGSMRQQHARQQQYFKKLLHFLVSVMQPG” the protein production was “failed”. With “MQQKDAVPDTAKKLKAPLTGLKTEQKVTERRPVAVVVNNHPKARPQSGLSKADIVIEALAEGQITRFLAIFQSQMPETVGPVRSAREYFVTLSNGFDSIFVHHGWSPGAKKQLESGAADYMNGLDFDGSLFWRADFSKPPHNSYTSYDYIKKAAEQKGYKLKQETNPLLFQTSDAKPANESYNVRVDYGTNNVTNLVEYNYDKKAEFYTRSSDGVITTDRETGKPVAMQNIFIVEASHHIIDQDGRRDIDLESGGKGLLFQHGNVIETDWKQVNGRIVPVKDGKWLPFVPGKTWINIVPDLDAASISKGEGVLEHHHHHH” the protein production was “not failed”. In the case of “MQQLQNVIETAFERRADITPANVDTVTREAITHVIDLLDTGALRVAEKIDGQWVTHQWLKKAVLLSFRINDNQVMEGAETRYYDKVPMKFAGYDEARFQREGFRVVPPATVRKGAFIARNTVLMPSYVNIGAFVDEGTMVDTWATVGSCAQIGKNVHLSGGVGIGGVLEPLQANPTIIEDNCFVGARSEVVEGVIVEEGSVISMGVFIGQSTRIYDRETGEVHYGRVPAGSVVVSGNLPSKDGSYSLYCAVIVKKVDAKTRSKVGINELLRTID”, the protein production is reported as “not failed”. For “MQQYAPTIQRALLFGLLIILLLLGFHILKYFIVPVVWAAIIAYMTWPIYIGIQRFCGENRPNLSATLMISLIILVIGIPLTFAVFMLQHEGRNLFIELQQQIFSGHLSAPDFIRELPLVGNEITRILNEINTNPSNLTQNLSLWIQSHMGYGRFVLSEISKNLVKLCFALLSLFFFYRDGHTILNQVSKALEMVIGPRIHHYMDTISETTRAVVYGVGLTAVAQAILAGLSYFVAGVPNPMVLTIVTFLLALIPFGTPLAYTSVALWLFSQGQMMGAIGVMLWGVCIVSTSDNVIRPLVISGATQIPFLLIMFGVLGGLASFGLVGLFIGPVILAILLAIWREWLHENIEPEPVPKATLIYDDLDDQTKL”, the protein production was “failed”. For “MQRAAVFDVDGTLVDTNHLHVTTWWEAFRQAGHRVPMHAVHRAVGLASGDLVARLLGEDRDKEQDAELSAAHKALYGQYFDRLPALPGAGDLLRRLAADGWTVVLATSAGGSELGALRRAIDADDAIEATASADDVDAGKPAPEPVEHALELAGVPAERAVFVGDTVWDMRAGSRAGVRCVGVLCGGLPRADLEEAGAEAVYADPADLLASLRGSPLA”, the protein production was “failed”. In the case of “MQRANREHLEIISLEEISMLVSSDFDLPEVLQHVTAKVATQLKVSVCNIYLREGDEVVLAATHGFDPAFIGKIRIKIGDGITGSVARDGQYISLSRASQDPRYRYFPELQEEKYNSMLSFPIGDKKEVYGVINLNTTSIRSFHEDEIYFVSIIANLILTAIKLRQQVASSRKAAEASA”, the protein production is reported as “not failed”. In the case of “MQRDVSSCNTYNYGDALYWDARYVQDALSFDWYQCYSSLRPFVRSFVSTSSRVLMVGCGNSLMSEDMVKDGYEDIMNVDISSVAIEMMQTKYASVPQLKYMQMDVRDMSYFEDDSFDTIIDKGTLDSLMCGSDALLSASRMLGEVSRLIKPGGTYFLITYGDPKVRMPHLTRSAYNWKISLYIIPRPGFKRPESCSSSAKSCMEAIPITSEGMLPHDYVLEDPDSHFIYICKKKDEDEEAQLPSYPLMEDVL”, the protein production is reported as “failed”. With “MQREKVDVLVIGAGPAGTVAASLVNKSGFKVKIVEKQKFPRFVIGESLLPRCMEHLDEAGFLDAVKAQGFQQKFGAKFVRGKEIADFNFSDQFSNGWNWTWQVPRGNFDKTLADEAARQGVDVEYEVGVTDIKFFGTDSVTTIEDINGNKREIEARFIIDASGYGRVIPRMFGLDKPSGFESRRTLFTHIKDVKRPVAAEMEGNRITAVVHKPKVWIWVIPFSNGNTSVGFVGEPSYFDEYTGTPEERMRAMIANEGHIAERFKSEEFLFEPRTIEGYAISASKLYGDGFVLTGNATEFLDPIFSSGATFAMESGSKGGKLAVQFLKGEEVNWEKDFVEHMMQGIDTFRSFVTGWYDGTLHAVFFAKNPDPDHKRMICSVLAGYVWDKNNPFVKKHNTILKTLAKVIQMGEEALEHHHHHH” the protein production was “not failed”. With “MQRNLSHIISQATSAPLLLEPAYARVFFCALGRESGINSLHIPGNNESLDQSDMALVTGDFMATGKPQARFYQVVNGIAVLPVTGTLVHKLGGMRPFSGMTGYDGVTARLQQAVSDPEVKGILLDIDSPGGQAAGAFDCADMIYRMREQKPVWALANETACSAAMLLAAACSHRLVTQTSRMGSIGVVMAHTSYAEKLKQEGIDITLIYSGAHKADLTPSQKLPESVYADYQQRMDEARKMFAEKVARYTGLSVDAVMATEAAVYDGQAIITTGLADGMVNAADAIGVMAEAINSNKTGGTMPELSAADAVTQENQRVMGILGCPEARGHEALAQMLAGQPGMSVAQAKSILAAAAPADTTSTADRILALEEAGGRETLAQTLAAMPEMTVEQARTILAASPIAAATSLHDAVMALDEAKGREELAEKLAVMPGMTTDQARDLLAAAPDKSGNAGLSMNNAFDAFMQSHSPGPISGGKGHSNDTETTLLMSIPGTSAT” the protein production was “failed”. In the case of “MQRTGELPAEHVPVILESSGAGDFHLIDSGNGLKLEQYGDYRVVRPEAQALWRPLVPDRVWQNADAIFTGDTDEDGMGRWRFPKEALGETWPLSLLGVEFLGRFTAFRHVGVFPEQIVHWEWLKNAVETADRPLKVLNLFGYTGVASLVAAAAGAEVTHVDASKKAIGWAKENQVLAGLEQAPIRWICEDAMKFIQREERRGSTYDIILTDPPKFGRGTHGEVWQLFDHLPLMLDICREILSPKALGLVLTAYSIRASFYSMHELMRETMRGAGGVVASGELVIREAGLDGKTPGRVLSTSLFSRWEPK”, the protein production is reported as “not failed”. In the case of “MQRTLGEIMKIYFATGNPNKIKEANIILKDLKDVEIEQIKISYPEIQGTLEEVAEFGAKWVYNILKKPVIVEDSGFFVEALNGFPGTYSKFVQETIGNEGILKLLEGKDNRNAYFKTVIGYCDENGVRLFKGIVKGRVSEEIRSKGYGFAYDSIFIPEEEERTFAEMTTEEKSQISHRKKAFEEFKKFLLDRI”, the protein production is reported as “not failed”. With “MQRYDAVISGAGPAGCSAALSLAQKGRRVLLIDKARFPREKICGDGVTAASTELLEEMGVLELLRQRPGSLTEFRGATFVSPGGTVVQGRILRNGHLSGSSYVIPRMVLDDSLVSRVKEHSSITFLDKTTVTGLVMDGDRARGVATSAGEFCGRIIIAADGAYSPIAKQLDLWNRDKRQQGFAMRAWFSGVEGLGDSIELCYDKAMLPGYGWIFPAGEQRANVGVFLLPRFADQRSTKRLFKSFVKENAFAAARLKNAVMEPGSLKSWPLPFGSFAGRRGRGNVLLAGDAGSFIDPLTGEGIYYALKTGRYAAEAVANALERNDESAALTRYEQLWRGEFSGRVYFPGYAFQHFMNNSWFVDTFMRYTAKKQHRADLLADVVAHNRKRRELFKLLNPFYLEHHHHHH” the protein production was “failed”. In the case of “MQSINFRTARGNLSEVLNNVEAGEEVEITRRGREPAVIVSKATFEAYKKAALDAEFASLFDTLDSTNKELVNRLEHHHHHH”, the protein production is reported as “not failed”. With “MQSNLLAVLFALASALTIAWGTVVRHRIALRTPKDGSLRSSPLLNALMTPMWWAGMSTAMLAYFLQTVALGFGTLLVVQPVLVLSLMFTLPLSARFNGYRLRRTEIFWATLLTVAVGIMIVLGRPLPGNPHPPLDRWIPVLLVGVAVMGGMWLLAEYVLKKDKALILGLVTGALFGYVAVMSKAAVDLFVHQGITGLILNWEGYGLILTALLGTIVQQYSFNAGELQKSLPAMTIAEPIVAFSLGYLVLGEKFQVVDWEWIAMGIALLVMIVSTIALSRTSTMPAGSKR” the protein production was “failed”. With “MQSPEKIDPTWEDSVIDSFISFVRSYDGDFTCIYKLADTVSDEYSLQKIIDFLSSTPQGKQAFQKRPQLGVVDLPKLHQLPTDTLGYVYADQMLQNNLQPLQSHEIDNDYQFFKTHITETHDLWHIVTGADTSILGEIQLEAFYVSQLYASRFWLALLAKNLLKAVIYDIELSTPYMDAISTGWVMAKQAKPLFGLEWNLLWEKPLADVRTSLNIILPVNLEHHHHHH” the protein production was “not failed”. For “MQSPNNDYNATSKRGWFTRFLDGVEWLGNLLPHPITLFAVFCLFIIFISGIAAYFGVSAVDPRDGETVIKAVSLLNAEGIQRIVTNLVTNFTGFTPLGTVLVALLGVGVAERSGLISAAMRGLVMKAPPRLVTVTIVFAGVISNTAAELGYVVLVPLAAMIFYGLGRHPLAGLSAAFAGVSAGYSANLLIGTVDPLLSGITEEAAKIIDPAYTVGAEANWYFMMVSTFLIAIMGALITDKIVEPKLGKYNKDEASIDLSDQSSMDPLNKQEKRGLIYAGLSVLVLAGILALTVVPEWGILRHPETGDVKGSPFLKGVVVYIFFFFAIPGFVYGRTVETMRNDRDVIDAMSHSMSTMGMYIVLVFFAAQFVNFFKWTNFGTIFAINGAEFLTNIGMTGPIIFLFFIMVCGFVNLMLGSASAQWAITAPIFVPMLMLVGYSPEVIQAAYRIGDSVTNVITPMMSYFGLILAVAARYKKDLGIGTLVAMMLPYSMFFFVGWSVLFFLWVFVFGFPVGPAAPTYYN”, the protein production was “not failed”. With “MQSRLSKILRSSVVGVAVLALLAGCSNNADDTDADSTSTGNSAFPVSIEHEFGTTTIDDVPERVVTLGVTDADIVLALGTVPVGNTGYKFFENGLGPWTDELVEGKELTLLDSDSTPDLEQVAALEPDLIIGVSAGFDDVVYEQLSDIAPVVARPAGTAAYAVAREEATNLVARAMGQSEKGQELNEETDALIQAARDENPSFDGKTGTVILPYQGKYGAYLPGDARGQFLDSLGISLPEAVLSRDTGDSFFVDVPAESVKDVDGDVLLVLSNDENLDITAENPLFETLNVVQKDAVIVATTEERGAITYNSVLSVPFALEHLAPRIAEALK” the protein production was “failed”. With “MQSYSDSKPGGATFALFETEHLKANIRRALVEAVLSPWQRTFLSDVLSKLERYGNRARLSHKQLLKLNEILGGNGTPRQDRVTTSRTTRHTRRPRFRSPSFLSRQIRWSRRRLARDAVVVALIVMVGLLYSVFETGPVQSFLGTVGKSSHVMGPVDQAFTVTDGDTVHVAGERAGTRLVGFNTPEKFSPQCEYERKLGERASSRLRELVKSPNLQLTKVPCACPAGSEGTDACNHGRSCGVLKVDGRDVGQILIGEGLAVPFICEGNRCPRTPRPWCGQQS” the protein production was “failed”. In the case of “MQTINTHPVQPLKLDSEVQRQMNFQFLTAMKAFFTLLTTEDNIDAVDELSSILIHSRAFELAAESMQTDPEVAHLIKERYYAPVHDVEQLLQYPADSLGYLYASTLKESGFERIDPEIIVNSDTAYIEHRWQQTHDIWHLVTGFSASGIDEIGLQAFYLAQFRLPLASMLIANALMSATLLAPEDLPQLLQTIERGWTMGLQAKPLFAQKWEEAWEKPLSQWRDELNIQAFS”, the protein production is reported as “failed”.
